This note sets out measurements from US20260242735A1 (UNIVERSIT T BASEL, published 2026).

Assay [1] deals with human CD33 P48M (human, UniProt P20138 18-364). Briefly: flow cytometry, transfected cells. Background: A flow cytometer gives signals particle by particle.
The target of assay [2] is human CD33 Y49T (human, UniProt P20138 18-364). Briefly: flow cytometry, transfected cells.
Assay [3] has as its target human CD33 S131K (human, UniProt P20138 18-364). As to the kind of experiment: flow cytometry, transfected cells.
In assay [4] the target is human CD33 S131F (human, UniProt P20138 18-364). As to the kind of experiment: flow cytometry, transfected cells.
For assay [5], the target named is human CD33 P132L (human, UniProt P20138 18-364). As to the kind of experiment: flow cytometry, transfected cells.
The target of assay [6] is human CD33 P132Y (human, UniProt P20138 18-364). As to the kind of experiment: flow cytometry, transfected cells.
Assay [7] has as its target human CD33 P132N (human, UniProt P20138 18-364). Briefly: flow cytometry, transfected cells.
For assay [8], the target named is human CD33 W22Y (human, UniProt P20138 18-364). Briefly: flow cytometry, transfected cells.
In assay [9] the target is human CD33 W22Q (human, UniProt P20138 18-364). Briefly: flow cytometry, transfected cells.
Assay [10] has as its target T1, human CD33 Y129A (human, UniProt P20138 18-364).
T1 construct: alanine scan clone, transfected HEK293-T
Briefly: alanine scan, flow cytometry, HEK293-T.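 Note: antibody binding to each alanine-substituted CD33 mutant expressed transiently in HEK293-T, read as fluorescence minus background, mean of duplicates, relative to wild-type CD33 set as 100%.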

Assay [11] deals with T2, human CD33 L134A (human, UniProt P20138 18-364).
T2 construct: alanine scan clone, transfected HEK293-T
Briefly: alanine scan, flow cytometry, HEK293-T.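 Note: antibody binding to each alanine-substituted CD33 mutant expressed transiently in HEK293-T, read as fluorescence minus background, mean of duplicates, relative to wild-type CD33 set as 100%.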

Assay [12] concerns the target human CD33 C212A (human, UniProt P20138 18-364). As to the kind of experiment: alanine scan, flow cytometry.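 Note: HEK293-T cells transiently expressing single-residue alanine mutants of CD33 (alanine swapped to serine), antibody binding read by fluorescence in duplicate, background-subtracted, expressed relative to wild-type CD33.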
In assay [13] the target is human CD33 D51K (human, UniProt P20138 18-364). As to the kind of experiment: flow cytometry, transfected cells.
Assay [14] has as its target human CD33 K52G (human, UniProt P20138 18-364). Briefly: flow cytometry, transfected cells.
In assay [15] the target is human CD33 P48I (human, UniProt P20138 18-364). Briefly: flow cytometry, transfected cells.
Assay [16] deals with human CD33 K52S (human, UniProt P20138 18-364). Briefly: flow cytometry, transfected cells.
The target in assay [17] is human CD33 K52L (human, UniProt P20138 18-364). As to the kind of experiment: flow cytometry, transfected cells.
The target of assay [18] is human CD33 Y49Q (human, UniProt P20138 18-364). Briefly: flow cytometry, transfected cells.
In assay [19] the target is human CD33 Y49H (human, UniProt P20138 18-364). Briefly: flow cytometry, transfected cells.
The target in assay [20] is human CD33 Y49R (human, UniProt P20138 18-364). As to the kind of experiment: flow cytometry, transfected cells.
Assay [21] concerns the target human CD33 Y49L (human, UniProt P20138 18-364). Briefly: flow cytometry, transfected cells.
In assay [22] the target is human CD33 F44D (human, UniProt P20138 18-364). As to the kind of experiment: flow cytometry, transfected cells.
Assay [23] deals with human CD33 H45Y (human, UniProt P20138 18-364). Briefly: flow cytometry, transfected cells.
Assay [24] deals with human CD33 P46S (human, UniProt P20138 18-364). As to the kind of experiment: flow cytometry, transfected cells.
Assay [25] deals with human CD33 P46I (human, UniProt P20138 18-364). Briefly: flow cytometry, transfected cells.
For assay [26], the target named is human CD33 N20S (human, UniProt P20138 18-364). As to the kind of experiment: flow cytometry, transfected cells.
The target in assay [27] is human CD33 Q24S (human, UniProt P20138 18-364). As to the kind of experiment: flow cytometry, transfected cells.
Assay [28] concerns the target human CD33 Q24H (human, UniProt P20138 18-364). As to the kind of experiment: flow cytometry, transfected cells.

Chain of human CD33 Y49H (P20138 18-364 Y49H limits assumed): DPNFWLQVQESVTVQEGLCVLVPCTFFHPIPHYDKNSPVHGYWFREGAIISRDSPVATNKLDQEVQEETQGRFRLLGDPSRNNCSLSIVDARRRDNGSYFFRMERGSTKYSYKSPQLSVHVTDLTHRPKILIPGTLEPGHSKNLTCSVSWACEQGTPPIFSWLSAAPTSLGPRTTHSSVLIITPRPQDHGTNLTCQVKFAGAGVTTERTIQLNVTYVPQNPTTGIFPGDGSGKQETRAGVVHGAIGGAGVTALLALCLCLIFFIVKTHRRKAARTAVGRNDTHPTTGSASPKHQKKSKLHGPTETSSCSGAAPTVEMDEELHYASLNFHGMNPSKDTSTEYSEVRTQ
Chain of human CD33 P132Y (P20138 18-364 P132Y limits assumed): as the sequence (P20138 18-364 Y49H limits assumed) above, with H32Y, P115Y counted along it
T1 sequence (P20138 18-364 Y129A limits assumed): as the sequence (P20138 18-364 Y49H limits assumed) above, with H32Y, Y112A counted along it
Chain of human CD33 C212A (P20138 18-364 C212A limits assumed): as the sequence (P20138 18-364 Y49H limits assumed) above, with H32Y, C195A counted along it
Chain of human CD33 Y49L (P20138 18-364 Y49L limits assumed): as the sequence (P20138 18-364 Y49H limits assumed) above, with H32L counted along it
T2 sequence (P20138 18-364 L134A limits assumed): as the sequence (P20138 18-364 Y49H limits assumed) above, with H32Y, L117A counted along it
Chain of human CD33 Q24S (P20138 18-364 Q24S limits assumed): as the sequence (P20138 18-364 Y49H limits assumed) above, with Q7S, H32Y counted along it
Chain of human CD33 P46I (P20138 18-364 P46I limits assumed): as the sequence (P20138 18-364 Y49H limits assumed) above, with P29I, H32Y counted along it
Chain of human CD33 H45Y (P20138 18-364 H45Y limits assumed): as the sequence (P20138 18-364 Y49H limits assumed) above, with H28Y, H32Y counted along it
Chain of human CD33 P46S (P20138 18-364 P46S limits assumed): as the sequence (P20138 18-364 Y49H limits assumed) above, with P29S, H32Y counted along it
Chain of human CD33 W22Y (P20138 18-364 W22Y limits assumed): as the sequence (P20138 18-364 Y49H limits assumed) above, with W5Y, H32Y counted along it
Chain of human CD33 F44D (P20138 18-364 F44D limits assumed): as the sequence (P20138 18-364 Y49H limits assumed) above, with F27D, H32Y counted along it
Chain of human CD33 S131F (P20138 18-364 S131F limits assumed): as the sequence (P20138 18-364 Y49H limits assumed) above, with H32Y, S114F counted along it
Chain of human CD33 D51K (P20138 18-364 D51K limits assumed): as the sequence (P20138 18-364 Y49H limits assumed) above, with H32Y, D34K counted along it
Chain of human CD33 P48M (P20138 18-364 P48M limits assumed): as the sequence (P20138 18-364 Y49H limits assumed) above, with P31M, H32Y counted along it
Chain of human CD33 P48I (P20138 18-364 P48I limits assumed): as the sequence (P20138 18-364 Y49H limits assumed) above, with P31I, H32Y counted along it
Chain of human CD33 S131K (P20138 18-364 S131K limits assumed): as the sequence (P20138 18-364 Y49H limits assumed) above, with H32Y, S114K counted along it
Chain of human CD33 K52S (P20138 18-364 K52S limits assumed): as the sequence (P20138 18-364 Y49H limits assumed) above, with H32Y, K35S counted along it
Chain of human CD33 P132L (P20138 18-364 P132L limits assumed): as the sequence (P20138 18-364 Y49H limits assumed) above, with H32Y, P115L counted along it
Chain of human CD33 N20S (P20138 18-364 N20S limits assumed): as the sequence (P20138 18-364 Y49H limits assumed) above, with N3S, H32Y counted along it
Chain of human CD33 Y49R (P20138 18-364 Y49R limits assumed): as the sequence (P20138 18-364 Y49H limits assumed) above, with H32R counted along it
Chain of human CD33 K52L (P20138 18-364 K52L limits assumed): as the sequence (P20138 18-364 Y49H limits assumed) above, with H32Y, K35L counted along it
Chain of human CD33 P132N (P20138 18-364 P132N limits assumed): as the sequence (P20138 18-364 Y49H limits assumed) above, with H32Y, P115N counted along it
Chain of human CD33 Y49Q (P20138 18-364 Y49Q limits assumed): as the sequence (P20138 18-364 Y49H limits assumed) above, with H32Q counted along it
Chain of human CD33 W22Q (P20138 18-364 W22Q limits assumed): as the sequence (P20138 18-364 Y49H limits assumed) above, with W5Q, H32Y counted along it
Chain of human CD33 Y49T (P20138 18-364 Y49T limits assumed): as the sequence (P20138 18-364 Y49H limits assumed) above, with H32T counted along it
Chain of human CD33 Q24H (P20138 18-364 Q24H limits assumed): as the sequence (P20138 18-364 Y49H limits assumed) above, with Q7H, H32Y counted along it
Chain of human CD33 K52G (P20138 18-364 K52G limits assumed): as the sequence (P20138 18-364 Y49H limits assumed) above, with H32Y, K35G counted along it

B1: Refmab #4 (antibody, human IgG1, V domains shown)
VH: QVQLVQSGAEVKKPGESVKVSCKASGYTFTNYGMNWVKQAPGQGLEWMGWINTYTGEPTYADKFQGRVTMTTDTSTSTAYMEIRNLGGDDTAVYYCARWSWSDGYYVYFDYWGQGTSVTVSS
VL: DIVMTQSPDSLTVSLGERTTINCKSSQSVLDSSTNKNSLAWYQQKPGQPPKLLLSWASTRESGIPDRFSGSGSGTDFTLTIDSPQPEDSATYYCQQSAHFPITFGQGTRLEIK
For B1, the binding result in assay [1] and in [2] was “no binding (tested: below 20%)” throughout.

B2: Refmab #6 (antibody, human IgG1, V domains shown)
VH: QVQLQQPGAEVVKPGASVKMSCKASGYTFTSYYIHWIKQTPGQGLEWVGVIYPGNDDISYNQKFQGKATLTADKSSTTAYMQLSSLTSEDSAVYYCAREVRLRYFDVWGQGTTVTVSS
VL: EIVLTQSPGSLAVSPGERVTMSCKSSQSVFFSSSQKNYLAWYQQIPGQSPRLLIYWASTRESGVPDRFTGSGSGTDFTLTISSVQPEDLAIYYCHQYLSSRTFGQGTKLEIK
Take B2: the binding result in assay [3], in assay [4], in [5], in assay [6], in assay [7] and in assay [8] was “no binding (tested: below 20%)” each time. Besides, the binding result in assay [9] is given as “no binding (tested: below 20%)”.

B3: Refmab #5 (antibody, V domains shown)
VH: QVQLVQSGAEVKKPGASVKVSCKASGYTFTNYDINWVRQAPGQGLEWIGWIYPGDGSTKYNEKFKAKATLTADTSTSTAYMELRSLRSDDTAVYYCASGYEDAMDYWGQGTTVTVSS
VL: DIQMTQSPSSLSASVGDRVTINCKASQDINSYLSWFQQKPGKAPKTLIYRANRLVDGVPSRFSGSGSGQDYTLTISSLQPEDFATYYCLQYDEFPLTFGGGTKVEIK
notes: The alanine scan used IgG or Fab
For B3, the results for the “Mean % WT Binding” value in assay [10] and in assay [11] were 196 % WT binding and 95.9 % WT binding, respectively.

B4: Refmab #5 (antibody, V domains shown)
VH: QVQLVQSGAEVKKPGASVKVSCKASGYTFTNYDINWVRQAPGQGLEWIGWIYPGDGSTKYNEKFKAKATLTADTSTSTAYMELRSLRSDDTAVYYCASGYEDAMDYWGQGTTVTVSS
VL: DIQMTQSPSSLSASVGDRVTINCKASQDINSYLSWFQQKPGKAPKTLIYRANRLVDGVPSRFSGSGSGQDYTLTISSLQPEDFATYYCLQYDEFPLTFGGGTKVEIK
notes: Full-length format is human IgG1 Fc silent (PG-LALA); also made as Fab; The alanine scan used IgG or Fab
Take B4: the “Mean % WT Binding” value in assay [12] was determined as 28.4 % WT binding.

B5: Refmab #5 (antibody, human IgG1, V domains shown)
VH: QVQLVQSGAEVKKPGASVKVSCKASGYTFTNYDINWVRQAPGQGLEWIGWIYPGDGSTKYNEKFKAKATLTADTSTSTAYMELRSLRSDDTAVYYCASGYEDAMDYWGQGTTVTVSS
VL: DIQMTQSPSSLSASVGDRVTINCKASQDINSYLSWFQQKPGKAPKTLIYRANRLVDGVPSRFSGSGSGQDYTLTISSLQPEDFATYYCLQYDEFPLTFGGGTKVEIK
As for B5, the binding result in [13], in assay [14], in [15], in assay [16], in [17] and in [18] was “no binding (tested: below 20%)” throughout. Further, the binding result in assay [19], in assay [20] and in assay [21] was “no binding (tested: below 20%)” each time.

B6: Refmab #3 (antibody, human IgG1, V domains shown)
VH: QVQLVQSGAEVKKPGSSVKVSCKASGYTFTDYNMHWVRQAPGQGLEWIGYIYPYNGGTGYNQKFKSKATITADESTNTAYMELSSLRSEDTAVYYCARGRPAMDYWGQGTLVTVSS
VL: DIQMTQSPSSLSASVGDRVTITCRASESVDNYGISFMNWFQQKPGKAPKLLIYAASNQGSGVPSRFSGSGSGTDFTLTISSLQPDDFATYYCQQSKEVPWTFGQGTKVEIK
As for B6, the binding result in [22], in [23], in assay [24], in [25], in assay [26] and in [27] was “no binding (tested: below 20%)” each time. The binding result in assay [28] was “no binding (tested: below 20%)”.
